One molecule from patent publication US20020065240A1 can be followed below.

For the assay, the target named is VEGF mitogenic receptors. Put plainly: cell-based or functional assay.

B1: recombinant human VEGF145, P15692 207-395 (ligand)
chain: APMAEGGGQNHHEVVKFMDVYQRSYCHPIETLVDIFQEYPDEIEYIFKPSCVPLMRCGGCCNDEGLECVPTEESNITMQIMRIKPHQGQHIGEMSFLQHNKCECRPKKDRARQEKKSVRGKGKGQKRKRKKSRYKSWSVCDKPRR
The molecule B1 yielded a half-maximal activity, HUVEC mitogenesis ([3H]thymidine incorporation) of 17 to 19 ng/mL.
